Assay results reported in PMC6007841.

Experiments:
[1] = biological target: mouse melanocortin 1 receptor (mouse) (UniProt Q01727)
[2] = biological target: human melanocortin 5 receptor (human) (UniProt P33032)
[3] = biological target: human melanocortin 3 receptor (human) (UniProt P41968)
[4] = biological target: human melanocortin 4 receptor (human) (UniProt P32245)
[5] = biological target: mouse melanocortin 3 receptor (mouse) (UniProt P33033)
[6] = biological target: mouse melanocortin 4 receptor (mouse) (UniProt P56450)
[7] = biological target: mouse melanocortin 5 receptor (mouse) (UniProt P41149)
[8] = biological target: human melanocortin 1 receptor (human) (UniProt Q01726)
Chain of human melanocortin 1 receptor (human) (Q01726 whole entry): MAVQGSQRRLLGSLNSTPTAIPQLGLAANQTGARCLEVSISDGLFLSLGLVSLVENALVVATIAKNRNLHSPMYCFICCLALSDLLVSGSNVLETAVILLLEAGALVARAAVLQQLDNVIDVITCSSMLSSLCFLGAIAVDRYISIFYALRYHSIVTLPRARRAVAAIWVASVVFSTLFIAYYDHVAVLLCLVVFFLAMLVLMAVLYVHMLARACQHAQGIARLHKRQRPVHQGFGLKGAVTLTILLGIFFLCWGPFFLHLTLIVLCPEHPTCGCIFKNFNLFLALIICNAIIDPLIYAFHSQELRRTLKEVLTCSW

Chain of mouse melanocortin 4 receptor (mouse) (P56450 whole entry): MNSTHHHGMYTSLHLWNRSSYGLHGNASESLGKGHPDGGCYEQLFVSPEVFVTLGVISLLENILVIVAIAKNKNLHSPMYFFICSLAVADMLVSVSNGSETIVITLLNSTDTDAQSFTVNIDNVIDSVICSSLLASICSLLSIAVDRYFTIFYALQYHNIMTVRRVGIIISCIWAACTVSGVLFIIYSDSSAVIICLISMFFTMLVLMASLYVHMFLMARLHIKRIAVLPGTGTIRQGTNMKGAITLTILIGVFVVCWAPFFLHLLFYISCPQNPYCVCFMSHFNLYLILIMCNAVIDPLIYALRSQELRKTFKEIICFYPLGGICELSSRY
Chain of human melanocortin 5 receptor (human) (P33032 whole entry): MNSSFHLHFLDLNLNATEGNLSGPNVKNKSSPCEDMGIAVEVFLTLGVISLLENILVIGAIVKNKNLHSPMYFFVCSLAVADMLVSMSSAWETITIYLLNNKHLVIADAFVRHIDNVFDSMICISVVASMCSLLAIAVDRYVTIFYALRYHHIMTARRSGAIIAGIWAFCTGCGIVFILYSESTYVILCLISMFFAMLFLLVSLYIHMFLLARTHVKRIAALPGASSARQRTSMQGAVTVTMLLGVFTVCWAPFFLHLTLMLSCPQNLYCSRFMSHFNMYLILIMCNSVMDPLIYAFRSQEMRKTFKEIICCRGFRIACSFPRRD
Chain of mouse melanocortin 3 receptor (mouse) (P33033 whole entry): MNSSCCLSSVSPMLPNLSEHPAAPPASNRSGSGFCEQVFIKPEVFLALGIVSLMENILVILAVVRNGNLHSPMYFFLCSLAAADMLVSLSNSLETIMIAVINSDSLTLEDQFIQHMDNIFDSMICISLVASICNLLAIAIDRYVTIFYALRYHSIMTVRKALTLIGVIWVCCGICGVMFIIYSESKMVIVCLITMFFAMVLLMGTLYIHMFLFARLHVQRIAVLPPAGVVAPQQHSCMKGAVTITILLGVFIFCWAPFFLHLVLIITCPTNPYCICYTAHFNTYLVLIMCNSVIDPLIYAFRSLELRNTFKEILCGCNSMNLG
Chain of mouse melanocortin 5 receptor (mouse) (P41149 whole entry): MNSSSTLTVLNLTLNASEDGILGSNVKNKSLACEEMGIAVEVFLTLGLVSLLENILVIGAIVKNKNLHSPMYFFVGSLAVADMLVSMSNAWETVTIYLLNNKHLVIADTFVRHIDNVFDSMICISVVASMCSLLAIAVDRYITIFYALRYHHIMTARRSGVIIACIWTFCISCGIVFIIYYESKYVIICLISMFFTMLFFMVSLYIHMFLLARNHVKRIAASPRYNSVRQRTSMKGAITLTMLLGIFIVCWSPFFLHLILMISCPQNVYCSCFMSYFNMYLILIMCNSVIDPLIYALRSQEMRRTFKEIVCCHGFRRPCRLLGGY
Chain of human melanocortin 3 receptor (human) (P41968 whole entry): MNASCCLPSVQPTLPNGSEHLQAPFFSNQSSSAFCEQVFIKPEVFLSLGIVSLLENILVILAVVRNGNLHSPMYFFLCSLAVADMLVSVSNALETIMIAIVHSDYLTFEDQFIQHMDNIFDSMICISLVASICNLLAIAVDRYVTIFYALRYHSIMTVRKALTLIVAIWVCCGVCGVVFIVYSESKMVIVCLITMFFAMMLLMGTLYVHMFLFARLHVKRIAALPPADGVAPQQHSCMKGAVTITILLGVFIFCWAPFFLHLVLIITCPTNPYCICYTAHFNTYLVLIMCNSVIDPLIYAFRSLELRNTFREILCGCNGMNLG
Chain of human melanocortin 4 receptor (human) (P32245 whole entry): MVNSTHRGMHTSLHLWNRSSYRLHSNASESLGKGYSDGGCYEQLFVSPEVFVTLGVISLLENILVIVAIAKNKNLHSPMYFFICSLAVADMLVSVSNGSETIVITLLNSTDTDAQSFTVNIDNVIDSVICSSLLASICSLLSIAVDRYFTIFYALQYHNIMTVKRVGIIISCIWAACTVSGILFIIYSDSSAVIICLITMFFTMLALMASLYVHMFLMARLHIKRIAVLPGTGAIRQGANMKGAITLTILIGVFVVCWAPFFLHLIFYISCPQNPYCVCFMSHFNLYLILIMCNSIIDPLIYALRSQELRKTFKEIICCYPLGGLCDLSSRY
Chain of mouse melanocortin 1 receptor (mouse) (Q01727 whole entry): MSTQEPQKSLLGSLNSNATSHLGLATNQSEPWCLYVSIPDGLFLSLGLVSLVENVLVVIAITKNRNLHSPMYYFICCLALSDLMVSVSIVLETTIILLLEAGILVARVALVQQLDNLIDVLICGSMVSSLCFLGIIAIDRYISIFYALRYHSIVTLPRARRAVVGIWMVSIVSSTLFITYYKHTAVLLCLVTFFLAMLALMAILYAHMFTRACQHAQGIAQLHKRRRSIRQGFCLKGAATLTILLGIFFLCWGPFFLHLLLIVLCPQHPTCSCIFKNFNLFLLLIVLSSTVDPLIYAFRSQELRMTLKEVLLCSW

- cAMP agonist EC50 (AlphaScreen cAMP assay, HEK293 cells expressing the receptor) [1]: 0.04 nM
- cAMP agonist EC50 (AlphaScreen cAMP assay, HEK293 cells expressing the receptor) [2]: 0.4 nM
- cAMP agonist EC50 (AlphaScreen cAMP assay, HEK293 cells expressing the receptor) [3]: 0.3 nM
- cAMP agonist EC50 (AlphaScreen cAMP assay, HEK293 cells expressing the receptor) [4]: 0.13 nM
- cAMP agonist EC50 (AlphaScreen cAMP assay, HEK293 cells expressing the receptor) [5]: 0.33 nM
- cAMP agonist EC50 (AlphaScreen cAMP assay, HEK293 cells expressing the receptor) [6]: 0.87 nM
- cAMP agonist EC50 (AlphaScreen cAMP assay, HEK293 cells expressing the receptor) [7]: 0.41 nM
- cAMP agonist EC50 (AlphaScreen cAMP assay, HEK293 cells expressing the receptor) [8]: 0.07 nM
Substance: NDP-MSH (peptide)
